Experimental data published in patent US20210380680A1 (ZLLP, published 2021).
Like-named read-outs stand apart in the source and are kept apart here.

Columns and labels:
[1] = biological target: T1, human Claudin 18.2 (CLDN18.2) (human, UniProt P56856-2 1-261); assay: cell-based or functional assay
[2] = biological target: T1, human Claudin 18.2 (CLDN18.2); assay: cell-based or functional assay; remark: listed apart in the source
[3] = biological target: T1, human Claudin 18.2 (CLDN18.2); assay: cell-based or functional assay; remark: listed apart in the source
[4] = biological target: T1, human Claudin 18.2 (CLDN18.2); assay: FACS on CHO-CLDN18.2 cells
[5] = biological target: T1, human Claudin 18.2 (CLDN18.2); assay: cell-based or functional assay; remark: listed apart in the source
[6] = biological target: T1, human Claudin 18.2 (CLDN18.2); assay: FACS on CHO-CLDN18.2 cells; remark: listed apart in the source
[7] = biological target: T1, human Claudin 18.2 (CLDN18.2); assay: cell-based or functional assay; remark: listed apart in the source
[8] = biological target: T1, human Claudin 18.2 (CLDN18.2); assay: cell-based or functional assay; remark: listed apart in the source
[9] = biological target: T1, human Claudin 18.2 (CLDN18.2); assay: FACS on CHO-CLDN18.2 cells; remark: listed apart in the source

B1: 364D1A7-H3L1 (antibody, V domains shown)
VH: EVQLVESGGGLVQPGGSLRLSCAASGFTFSSFGMHWVRQAPGKGLEWVAYISSGSGSIYYADTVKGRFTLSRDNPKNSLYLQMNSLRAEDTAVYYCATSYYYGNALEYWGQGTTVTVSS
VL: DIVMTQSPDSLAVSLGERATINCKSSQSLFNVGNQKNYLTWYQQKPGQPPKLLIYWASTRKSGVPDRFSGSGSGTDFTLTISSLQAEDVAVYYCQNVYSYPLTFGGGTKVEIK
notes: humanized IgG; constant regions not specified
% ADCC @ 6.67 nM, NCI-N87-CLDN18.2, FcR-TANK [1]: 10.8% | ADCC EC50, NCI-N87-CLDN18.2, FcR-TANK [1]: 0.41 nM | % specific cytotoxicity @ 6.67 nM, NUGC4-CLDN18.2, PBMC [2]: 26.2% | ADCC EC50, NUGC4-CLDN18.2, PBMC [2]: 11.3 nM | CDC EC50, human serum, CHO-CLDN18.2 [3]: 1.28 nM | EC50 [4]: 4.22 nM

B2: 364D1A7-VL-S32L (antibody, human IgG1, kappa, V domains shown)
VH: DVQLVESGGGLVQPGGSRKLSCAASGFTFSSFGMHWVRQAPEKGLEWVAYISSGSGSIYYADTVKGRFTLSRDNPKNTLFLQMTSLRSEDTAIYYCATSYYYGNALEYWGQGTSVTVSS
VL: DVVLTQSPSSLTVTEGEKVSMSCKSSQSLFNLGNQKNYLTWYQQKPGQTPTLLIYWASTRKSGVPDRFTGSGSGTDFTLTINTVQAEDLAVYYCQNVYSYPLTFGAGTKLDLKR
ADCC EC50, NCI-N87-18.2 cells, FcR-TANK effectors [5]: 9.56 nM

B3: 413H9F8-H1L1 (antibody, V domains shown)
VH: EVQLVESGGGLVQPGGSLRLSCAASGFTFSSFGMHWVRQAPGKGLEWVSYISSGSSPIYYVDKLKGRFTISRDNAKNSLYLQMNSLRAEDTAVYYCARAGYAVRNALDYWGQGTLVTVSS
VL: DIVMTQSPDSLAVSLGERATINCKSSQSLLNVGNQKNYLAWYQQKPGQPPKLLIYGASTRESGVPDRFSGSGSGTDFTLTISSLQAEDVAVYYCQNDLFYPLTFGGGTKVEIK
notes: as for B1
% ADCC @ 6.67 nM, NCI-N87-CLDN18.2, FcR-TANK [1]: 15.1% | ADCC EC50, NCI-N87-CLDN18.2, FcR-TANK [1]: 0.47 nM | % specific cytotoxicity @ 6.67 nM, NUGC4-CLDN18.2, PBMC [2]: 27% | ADCC EC50, NUGC4-CLDN18.2, PBMC [2]: 8.98 nM | CDC EC50, human serum, CHO-CLDN18.2 [3]: 0.78 nM | EC50 [6]: 2.31 nM

B4: 364D1A7-VL-S32V (antibody, human IgG1, kappa, V domains shown)
VH: DVQLVESGGGLVQPGGSRKLSCAASGFTFSSFGMHWVRQAPEKGLEWVAYISSGSGSIYYADTVKGRFTLSRDNPKNTLFLQMTSLRSEDTAIYYCATSYYYGNALEYWGQGTSVTVSS
VL: DVVLTQSPSSLTVTEGEKVSMSCKSSQSLFNVGNQKNYLTWYQQKPGQTPTLLIYWASTRKSGVPDRFTGSGSGTDFTLTINTVQAEDLAVYYCQNVYSYPLTFGAGTKLDLKR
notes: chimeric human IgG1, PTM site removed; also called 364D1A7-VL-32V
ADCC EC50, NCI-N87-18.2 cells, FcR-TANK effectors [5]: 12 nM | % specific cytotoxicity @ 6.67 nM, NUGC4-CLDN18.2, PBMC [7]: 26.6% | ADCC EC50, NUGC4-CLDN18.2 cells, PBMC [7]: 6.36 nM | % ADCC @ 6.67 nM, NCI-N87-CLDN18.2, FcR-TANK [1]: 15.3% | ADCC EC50, NCI-N87-CLDN18.2, FcR-TANK [1]: 0.34 nM | CDC EC50, human serum, CHO-CLDN18.2 [3]: 1.49 nM | EC50 [4]: 3.87 nM

B5: 413H9F8-H2L1 (antibody, V domains shown)
VH: EVQLVESGGGLVQPGGSLRLSCAASGFTFSSFGMHWVRQAPGKGLEWVAYISSGSSPIYYVDKLKGRFTISRDNAKNSLYLQMNSLRAEDTAVYYCARAGYAVRNALDYWGQGTLVTVSS
VL: DIVMTQSPDSLAVSLGERATINCKSSQSLLNVGNQKNYLAWYQQKPGQPPKLLIYGASTRESGVPDRFSGSGSGTDFTLTISSLQAEDVAVYYCQNDLFYPLTFGGGTKVEIK
notes: as for B1
% ADCC @ 6.67 nM, NCI-N87-CLDN18.2, FcR-TANK [1]: 14.1% | ADCC EC50, NCI-N87-CLDN18.2, FcR-TANK [1]: 0.31 nM | % specific cytotoxicity @ 6.67 nM, NUGC4-CLDN18.2, PBMC [2]: 34.3% | ADCC EC50, NUGC4-CLDN18.2, PBMC [2]: 5.97 nM | CDC EC50, human serum, CHO-CLDN18.2 [3]: 1.06 nM | EC50 [6]: 2.43 nM

B6: 413H9F8-H1L3 (antibody, V domains shown)
VH: EVQLVESGGGLVQPGGSLRLSCAASGFTFSSFGMHWVRQAPGKGLEWVSYISSGSSPIYYVDKLKGRFTISRDNAKNSLYLQMNSLRAEDTAVYYCARAGYAVRNALDYWGQGTLVTVSS
VL: DIVMTQSPDSLAVSLGERATINCKSSQSLLNVGNQKNYLAWYQQKPGQPPKLLIYGASTRESGVPDRFIGSGSGTDFTLTISSLQAEDVAVYFCQNDLFYPLTFGGGTKVEIK
notes: as for B1
% ADCC @ 6.67 nM, NCI-N87-CLDN18.2, FcR-TANK [1]: 16.3% | ADCC EC50, NCI-N87-CLDN18.2, FcR-TANK [1]: 0.37 nM | % specific cytotoxicity @ 6.67 nM, NUGC4-CLDN18.2, PBMC [2]: 34.6% | ADCC EC50, NUGC4-CLDN18.2, PBMC [2]: 4.38 nM | CDC EC50, human serum, CHO-CLDN18.2 [3]: 1.07 nM | EC50 [6]: 2.38 nM

B7: Xi282A12F3(T62A)-V2-DL (antibody, V domains shown)
VH: QVQLKESGPVLVQPSQTLSLTCTVAGFSLTSYNVYWVRQPPGKGLEWMGVIWNTGATRYNSALKSRLSISKDTSKSQVFLKMNSLQTEDTATYYCARDSAMPAIPFAYWGQGTLVTVSS
VL: DIVMTQSPSSLAVSAGETVTINCKSSQSLFGSVRQKNYLAWYQQKPGQSPKLLIYLASTRESGVPDRFIGSGSGTDFTLTISSVQAEDLAKYYCQQYYDIPWTFGGGTKLELK
% internalization, NCI-N87-CLDN18.2, 37 C 2 h [8]: > 50% | % internalization, NUGC4-CLDN18.2, 37 C 2 h [8]: > 80%

B8: 413H9F8-cp1 (antibody, V domains shown)
VH: EVQLVESGGGLVQPGGSLRLSCAASGFTFSSFGMHWVRQAPGKGLEWVSYISSGSSPIYYVDKLKGRFTISRDNAKNSLYLQMNSLRAEDTAVYYCARAGYAVRNALDYWGQGTLVTVSS
VL: EIVMTQSPPTLSLSPGERVTLSCKSSQSLLNVGNQKNYLAWYQQKPGQAPRLLIYGASTRESGIPARFSGSGSGTDFTLTISSLQPEDFAVYYCQNDLFYPLTFGGGTKVEIK
notes: as for B1
% ADCC @ 6.67 nM, NCI-N87-CLDN18.2, FcR-TANK [1]: 13.3% | ADCC EC50, NCI-N87-CLDN18.2, FcR-TANK [1]: 0.44 nM | % specific cytotoxicity @ 6.67 nM, NUGC4-CLDN18.2, PBMC [2]: 31.5% | ADCC EC50, NUGC4-CLDN18.2, PBMC [2]: 7.18 nM | CDC EC50, human serum, CHO-CLDN18.2 [3]: 1.66 nM | EC50 [9]: 2.6 nM

B9: 413H9F8-VL-S32V (antibody, human IgG1, kappa, V domains shown)
VH: DVQLVESGGGSVQPGGSRRLSCAASGFTFSSFGMHWVRQAPEKGLEWVAYISSGSSPIYYVDKLKGRFTVSRDNPKNTLFLQMTSLRSEDTAMYYCARAGYAVRNALDYWGQGTSITVSS
VL: DIVMTQSPSSLSVSVGEKVTLSCKSSQSLLNVGNQKNYLAWYQQKTGQPPKLLIYGASTRESGVPDRFIGSGSGTDFTLTISSVQAEDLAVYFCQNDLFYPLTFGAGTKLELKR
notes: chimeric human IgG1, PTM site removed; also called 413H9F8-VL-32V; 413H9F8-VL-532V
ADCC EC50, NCI-N87-18.2 cells, FcR-TANK effectors [5]: 7.84 nM | % specific cytotoxicity @ 6.67 nM, NUGC4-CLDN18.2, PBMC [7]: 31.4% | ADCC EC50, NUGC4-CLDN18.2 cells, PBMC [7]: 7.69 nM | % ADCC @ 6.67 nM, NCI-N87-CLDN18.2, FcR-TANK [1]: 13.9% | ADCC EC50, NCI-N87-CLDN18.2, FcR-TANK [1]: 0.33 nM | CDC EC50, human serum, CHO-CLDN18.2 [3]: 0.76 nM | EC50 [9]: 1.84 nM | EC50 [6]: 2.14 nM

B10: 413H9F8-VL-S32V-V2-DL (antibody, V domains shown)
VH: DVQLVESGGGSVQPGGSRRLSCAASGFTFSSFGMHWVRQAPEKGLEWVAYISSGSSPIYYVDKLKGRFTVSRDNPKNTLFLQMTSLRSEDTAMYYCARAGYAVRNALDYWGQGTSITVSS
VL: DIVMTQSPSSLSVSVGEKVTLSCKSSQSLLNVGNQKNYLAWYQQKTGQPPKLLIYGASTRESGVPDRFIGSGSGTDFTLTISSVQAEDLAVYFCQNDLFYPLTFGAGTKLELK
% internalization, NCI-N87-CLDN18.2, 37 C 2 h [8]: < 30% | % internalization, NUGC4-CLDN18.2, 37 C 2 h [8]: < 15%

B11: 413H9F8-VL-S32L (antibody, human IgG1, kappa, V domains shown)
VH: DVQLVESGGGSVQPGGSRRLSCAASGFTFSSFGMHWVRQAPEKGLEWVAYISSGSSPIYYVDKLKGRFTVSRDNPKNTLFLQMTSLRSEDTAMYYCARAGYAVRNALDYWGQGTSITVSS
VL: DIVMTQSPSSLSVSVGEKVTLSCKSSQSLLNLGNQKNYLAWYQQKTGQPPKLLIYGASTRESGVPDRFIGSGSGTDFTLTISSVQAEDLAVYFCQNDLFYPLTFGAGTKLELKR
ADCC EC50, NCI-N87-18.2 cells, FcR-TANK effectors [5]: 8.56 nM

B12: hz282-11-V2 (antibody, V domains shown)
VH: QVQLQESGPGLVKPSETLSLTCTVSGFSLTSYNVYWIRQPPGKGLEWIGVIWNTGATRYNSALKSRVTISKDTSKSQVSLKLSSVTAADTAVYYCARDSAMPAIPFAYWGQGTLVTVSS
VL: DIQMTQSPSSLSASVGDRVTITCKSSQSLFGSVRQKNYLAWYQQKPGKAPKLLIYLASTRESGVPSRFSGSGSGTDFTLTISSLQPEDFATYYCQQYYDIPWTFGGGTKVEIK
% internalization, NCI-N87-CLDN18.2, 37 C 2 h [8]: > 50% | % internalization, NUGC4-CLDN18.2, 37 C 2 h [8]: > 80%

B13: hz282-15-V2 (antibody, V domains shown)
VH: QVQLQESGPGLVKPSETLSLTCTVSGFSLTSYNVYWIRQPPGKGLEWIGVIWNTGATRYNSALKSRVTISKDTSKSQVSLKLSSVTAADTAVYYCARDSAMPAIPFAYWGQGTLVTVSS
VL: DIQMTQSPSSLSASVGDRVTITCKSSQSLFGSVRQKNYLAWYQQKPGKSPKLLIYLASTRESGVPDRFSGSGSGTDFTLTISSLQPEDFAKYYCQQYYDIPWTFGGGTKVEIK
% internalization, NCI-N87-CLDN18.2, 37 C 2 h [8]: > 50% | % internalization, NUGC4-CLDN18.2, 37 C 2 h [8]: > 80%

B14: 357B8F8-VH-S61I-VL-S32I (antibody, human IgG1, kappa, V domains shown)
VH: QVQLKESGPGLVAPSQSLSITCTVSGFSLTSYGVHWVRQPPGKGLEWLGVIWPGGNTNYNIALMSRLSISKDNSKSQVFLKMNSLQTDDTAMYYCARDRRLAMDYWGQGTSVTVSS
VL: DIVMTQSPSSLTVTAGEKVTMTCKSSQSLLNIGNQKNYLTWYQQKPGQPPKLLIYWASTRESGVPDRFTGSGSGTDFTLTISILQAEDLAVYYCQNDYSYPFTFGSGTKLEIKR
ADCC EC50, NCI-N87-18.2 cells, FcR-TANK effectors [5]: 159 nM | % specific cytotoxicity @ 6.67 nM, NUGC4-CLDN18.2, PBMC [7]: 19.6% | ADCC EC50, NUGC4-CLDN18.2 cells, PBMC [7]: 4.87 nM | % ADCC @ 6.67 nM, NCI-N87-CLDN18.2, FcR-TANK [1]: 2.3% | ADCC EC50, NCI-N87-CLDN18.2, FcR-TANK [1]: 1.81 nM
